Key:
Experiment in all cases: BLI
LGP2 WT (Mus musculus) = conditions: 3'-biotin, BLI and EMSA: 20 mM Hepes pH 7.4, 0.15 M KCl, 1 mM TCEP, EMSA 15 min at 4 C with 1 uM protein and 100 ng nucleic acid, BLI with 0.1 or 1 uM protein …
[1] = molecular target: MDA5 WT (dL2);LGP2 WT del646-663 (Mus musculus;Mus musculus) (UniProt Q8R5F7); conditions: MDA5-LGP2 mixture, apparent Kd; 3'-biotin; BLI and EMSA: 20 mM Hepes pH 7.4, 0.15 M KCl, 1 mM TCEP; EMSA 15 min at 4 C with 1 uM protein and 100 ng nucleic …; BLI with 0.1 or 1 uM protein, temperature
[2] = molecular target: T1, MDA5 WT (dL2) del646-663 (Mus musculus) (UniProt Q8R5F7); conditions: 3'-biotin, BLI and EMSA: 20 mM Hepes pH 7.4, 0.15 M KCl, 1 mM TCEP, EMSA 15 min at 4 C with 1 uM protein and 100 ng nucleic acid, BLI with 0.1 or 1 uM protein …
T1 sequence: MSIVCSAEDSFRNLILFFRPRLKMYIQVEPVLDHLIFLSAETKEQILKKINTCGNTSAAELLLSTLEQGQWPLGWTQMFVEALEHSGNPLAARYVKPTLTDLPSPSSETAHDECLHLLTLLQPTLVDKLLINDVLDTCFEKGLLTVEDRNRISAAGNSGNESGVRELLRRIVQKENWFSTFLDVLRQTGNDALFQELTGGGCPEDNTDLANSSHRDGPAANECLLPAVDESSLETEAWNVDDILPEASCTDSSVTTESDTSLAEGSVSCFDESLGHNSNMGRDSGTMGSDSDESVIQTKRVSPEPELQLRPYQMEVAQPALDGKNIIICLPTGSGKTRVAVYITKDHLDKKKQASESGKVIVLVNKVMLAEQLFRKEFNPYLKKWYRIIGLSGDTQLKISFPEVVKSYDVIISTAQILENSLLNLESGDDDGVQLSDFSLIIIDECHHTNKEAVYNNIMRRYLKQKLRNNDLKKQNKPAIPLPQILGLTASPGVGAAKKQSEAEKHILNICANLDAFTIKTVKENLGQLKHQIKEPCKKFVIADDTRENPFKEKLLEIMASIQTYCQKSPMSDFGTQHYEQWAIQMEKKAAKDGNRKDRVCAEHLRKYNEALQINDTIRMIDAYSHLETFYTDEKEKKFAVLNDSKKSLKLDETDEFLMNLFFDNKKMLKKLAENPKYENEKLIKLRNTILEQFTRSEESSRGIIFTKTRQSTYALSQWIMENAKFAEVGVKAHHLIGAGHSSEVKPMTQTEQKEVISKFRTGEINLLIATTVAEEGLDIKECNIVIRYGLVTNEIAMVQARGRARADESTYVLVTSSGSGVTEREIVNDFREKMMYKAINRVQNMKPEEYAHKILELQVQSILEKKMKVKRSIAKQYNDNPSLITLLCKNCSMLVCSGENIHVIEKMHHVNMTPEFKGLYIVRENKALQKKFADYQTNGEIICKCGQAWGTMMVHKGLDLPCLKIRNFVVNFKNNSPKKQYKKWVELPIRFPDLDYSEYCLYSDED

LGP2 K30G (Mus musculus) = conditions: no ATP stated; 3'-biotin; BLI and EMSA: 20 mM Hepes pH 7.4, 0.15 M KCl, 1 mM TCEP; EMSA 15 min at 4 C with 1 uM protein and 100 ng nucleic acid; BLI with 0.1 or 1 uM protein …
[3] = molecular target: MDA5 WT (dL2);LGP2 K30G del646-663 (Mus musculus;Mus musculus) (UniProt Q8R5F7); conditions: MDA5-LGP2 K30G mixture; 3'-biotin; BLI and EMSA: 20 mM Hepes pH 7.4, 0.15 M KCl, 1 mM TCEP; EMSA 15 min at 4 C with 1 uM protein and 100 ng nucleic acid; BLI with 0.1 or 1 uM protein …

| Substance | Kd (LGP2 WT (Mus musculus)) | Kd (LGP2 WT (Mus musculus); no ATP stated) | Kd [1] | Kd ([2]; no ATP stated) | Kd (LGP2 K30G (Mus musculus)) | Kd [3] | Kd [2] |
| --- | --- | --- | --- | --- | --- | --- | --- |
| 1-kb dsRNA, 3'-biotin | 0.048 µM | 0.07 µM | 0.52 µM | 1.3 µM | 1.3 µM | – | – |
| 40-nt ssRNA, 3'-biotin | – | – | – | – | – | 1.84 µM | 2.6 µM |
| 300-bp dsRNA, 3'-biotin | – | – | – | – | – | – | 1.31 µM |
